Numbering of substitutions follows the chain as printed. Where no end group is shown, it is not given here.
Legend:
[1] = molecular target: T1, CRF binding protein (CRF-BP) (Homo sapiens, UniProt P24387); test: Binding to CRF binding protein by displacement of [D-125I-Tyr0]-hCRF; conditions: data not shown
T1 sequence (P24387 25-322): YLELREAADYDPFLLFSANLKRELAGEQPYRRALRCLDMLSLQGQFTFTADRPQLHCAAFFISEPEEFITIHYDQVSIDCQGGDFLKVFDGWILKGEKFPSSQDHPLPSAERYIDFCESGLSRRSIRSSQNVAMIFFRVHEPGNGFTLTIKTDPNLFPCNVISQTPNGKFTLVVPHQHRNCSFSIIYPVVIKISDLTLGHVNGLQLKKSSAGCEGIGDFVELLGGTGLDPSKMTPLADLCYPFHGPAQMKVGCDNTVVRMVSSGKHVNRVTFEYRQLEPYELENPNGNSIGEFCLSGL

[2] = molecular target: T2, CRF-R1 (Rattus norvegicus, UniProt P35353); test: cAMP accumulation in primary rat anterior pituitary cells expressing endogenous CRF-R1; assay type: cell-based; conditions: FIG. 3B; Ucn III even at concentrations >1 μM
T2 construct: cells expressing endogenous CRF-R1 (cultured primary anterior pituitary cells, (5)) or CRF-R2β (A7r5 cells, (27)); endogenous in cells; host or cells: primary rat anterior pituitary cells in culture
T2 sequence (P35353 24-415): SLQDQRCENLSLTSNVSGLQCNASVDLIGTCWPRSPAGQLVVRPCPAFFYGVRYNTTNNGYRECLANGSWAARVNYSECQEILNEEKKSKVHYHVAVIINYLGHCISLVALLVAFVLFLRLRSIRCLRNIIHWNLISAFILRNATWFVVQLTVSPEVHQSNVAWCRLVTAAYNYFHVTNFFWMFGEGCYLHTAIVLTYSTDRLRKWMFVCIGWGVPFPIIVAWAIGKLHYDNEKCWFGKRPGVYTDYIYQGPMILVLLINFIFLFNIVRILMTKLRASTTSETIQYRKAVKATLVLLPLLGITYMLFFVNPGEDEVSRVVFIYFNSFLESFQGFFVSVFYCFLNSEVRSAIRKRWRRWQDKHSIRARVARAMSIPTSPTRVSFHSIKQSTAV
Experimental: The abilities of Ucn II and Ucn III to activate adenylate cyclase in cells expressing endogenous CRF-R1 (cultured primary anterior pituitary cells, (5)) or CRF-R2β (A7r5 cells, (27)). Rat aortic smooth muscle cells, A7r5, were plated into 48-well culture dishes and allowed to recover for 48 h. Cells were starved in DMEM/0.2% FBS overnight before the experiment. The cells were preincubated with 0.1 mM 3-isobutyl-1-methylxanthine for 30 min and then exposed to peptides for 20 min at 37° C. Rat anterior pituitary cells were established in culture (28) and treated with test peptides for 45 min at 37° C. Intracellular cAMP was extracted from all cells and measured from triplicate wells using a radioimmunoassay kit (Biomedical Technologies). Potencies were determined using the PRISM […].

[3] = test system: rats; test: Intravenous Ucn III in rats: glucagon secretion and blood sugar; assay type: in vivo, rat; conditions: given intravenously to rats
Excerpt: It has been shown by others that glucagon can act directly on the beta cell to stimulate insulin secretion in a paracrine manner. Thus, Ucn III may provide a means for the beta cell to signal the alpha cell, which produces glucagon which would then, in turn, drive the beta cell. Thus, Ucn III (or any CRF-R2 agonist) may be used to stimulate and sustain islet functions.

[4] = molecular target: T3, hCRF-R1 (Homo sapiens, UniProt P34998); test: cAMP accumulation in CHO cells stably expressing hCRF-R1; assay type: cell-based; conditions: 1 μM
T3 construct: expressed in transfected cells
T3 sequence (P34998 24-415): T2 sequence (P35353 24-415) with R6H, N9S, T13A, V16I, V153M, A163G, V209I, H229Y, R356H
Experimental: The medium was changed at least 2 h before treatments to DMEM/0.1% FBS. The cells were preincubated with 0.1 mM 3-isobutyl-1-methylxanthine for 30 min and then exposed to peptides for 20 min at 37° C.

Ability to increase cyclic AMP in cultured pituitary cells expressing CRF-R1 [2] | Activation of CRF-R1 (cAMP) at very high doses [4] | Substance | Affinity for CRF-BP [1] | Glucagon secretion [3] | Blood sugar levels ([3]; subsequent to glucagon rise)
low potency |  | urocortin II (IVLSLDVPIGLLQILLEQARARAAREQATTNARILARVGHC; ends and bridges not checked; UniProt Q96RP3 72-112, looked up) [Ucn II, urocortin II, species (human or mouse) not specified at the place, reference compound] | neither Ucn II nor Ucn III exhibit appreciable affinity |  | 
inactive | no activation | urocortin III (FTLSLDVPTNIMNLLFNIAKAKNLRAQAAANAHLMAQI; ends and bridges not checked; UniProt Q969E3 120-157, looked up) [Ucn III, urocortin III, species (human or mouse) not specified at the place] | neither Ucn II nor Ucn III exhibit appreciable affinity | rapidly stimulated glucagon secretion | elevates blood sugar levels
 |  | urocortin [Urocortin (rat)] | subnanomolar |  | 

Source: patent publication US6812210B2, “Urocortin-III and uses thereof” (priority 2001, dated 2004)
